This is an account of results in patent publication US9260507B2, “Peptide promoting cell adhesion and migration” (Symatese, priority 2009, dated 2016).

Ends that are not written are not given here. * marks the point of attachment. Biotin = O=C1N[C@H]2[C@H](CS[C@H]2CCCCC(=O)*)N1

Data set [1] addresses T1, syndecan-1 (Homo sapiens, UniProt P18827).
T1 construct: endogenous in cells; host or cells: primary normal human keratinocytes from foreskin biopsies
T1 sequence (P18827 23-310): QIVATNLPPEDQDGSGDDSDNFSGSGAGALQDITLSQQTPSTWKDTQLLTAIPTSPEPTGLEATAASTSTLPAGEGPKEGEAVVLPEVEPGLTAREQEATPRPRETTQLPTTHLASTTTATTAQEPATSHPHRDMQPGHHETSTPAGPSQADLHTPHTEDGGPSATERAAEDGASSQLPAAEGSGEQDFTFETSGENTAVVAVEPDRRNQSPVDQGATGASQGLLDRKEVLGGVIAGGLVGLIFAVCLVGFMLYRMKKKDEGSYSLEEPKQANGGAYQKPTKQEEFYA
The data set is described as follows: Affinity chromatography (pull-down) with peptide-coated beads and syndecan-1 immunodetection. Type of data set: binding. The note with it: lysate of normal human keratinocytes, 2 mg; immunoblotting with antibody H174. The method, then: (A) A lysate of normal human keratinocytes was prepared as described in the Materials and Methods section and 2 mg of the lysate were incubated with neutravidin beads not coated or coated with the biotinylated peptides KKLRIKSKEK (SEQ ID NO: 1), PSGKPKSLP (SEQ ID NO: 19) and TSVTPKQSL (SEQ ID NO: 20). After washing, the material bound to the beads was digested with a mixture of heparitinase I and chondroitinase ABC to release the protein part of the syndecan-1 from the glycosaminoglycans. The samples were then analysed by SDS PAGE electrophoresis in an 8% acrylamide gel under non-reducing conditions and by immunoblotting with polyclonal anti-syndecan antibody H174. (B) A lysate of normal human keratinocytes was prepared and 2 mg of the lysate were incubated with neutravidin beads not coated or coated with the biotinylated peptide KKLRIKSKEK (SEQ ID NO: 1), or with sepharose beads coated with the whole LG4/5 fragment. After washing, the material bound to the beads was digested with a mixture of heparitinase I and chondroitinase ABC to release the protein part of the syndecan-1 from the glycosaminoglycans. The samples were then analysed by SDS PAGE electrophoresis in an 8% acrylamide gel under non-reducing conditions and by immunoblotting with polyclonal anti-syndecan antibody H174. (A, B) The position of molecular weight markers is shown on the left.
A series of point mutations was introduced into the peptide KKLRIKSKEK (SEQ ID NO: 1) by successively replacing each amino acid by an alanine (A). […] The samples were then analysed by SDS PAGE electrophoresis in an 8% acrylamide gel under non-reducing conditions and by immunoblotting with polyclonal anti-syndecan antibody H174. […]
A series of point or multiple mutations was introduced into the peptide KKLRIKSKEK (SEQ ID NO: 1) by replacing one or more lysines (K) by a glutamine (Q). […] The samples were then analysed by SDS PAGE electrophoresis in an 8% acrylamide gel under non-reducing conditions and by immunoblotting with polyclonal anti-syndecan antibody H174. […]
A general note: Immunoblotting shows a protein as a band on a membrane.

The test system of data set [2] is normal human keratinocytes. In words: Cell viability test (XTT). The following applies: 100 to 1 μg/ml, medium renewed every two days (repeated twice). (In general: Formazan colour is commonly taken as a measure of viable cells.)
Description: NHKs were seeded in 96-well plates at 10^4 cells per well. After 24 hours, the culture media were removed and replaced with KBM-2 medium containing the concentrations of peptide [sequence] (SEQ ID NO: 1) (upper curve) or LG4/5 protein (lower curve) shown. After 48 h of contact at 37° C. the media were removed and this step was repeated twice. After 48 h of contact at 37° C. the media were replaced by XTT reagent. The plates were then placed in an incubator at 37° C. and the absorption was read after 6 hours. Controls with neither peptide nor protein were made on the same plate.
The effect of the peptide on the cell viability of the normal human keratinocytes was analysed using a colorimetric assay (XTT Cell Proliferation Kit, Roche Diagnostics, Meylan, France). A control with the LG4/5 protein was carried out in parallel. The chemical reaction of the test is based on the production of NADPH in living cells reducing yellow tetrazolium XTT salts to orange formazan salts. Absorption at 490 nm is measured using an ELISA plate reader. […] In this case, cell viability was calculated from the formula: % viability=(Abs. cells with peptide/Abs. control cells)×100.
For data set [3], the target named is T2, syndecan-1 from lysates of normal human keratinocytes or normal human fibroblasts (human, UniProt P18827 23-310, limits assumed, carries heparan sulphate and chondroitin sulphate chains during binding; stripped with heparitinase I and chondroitinase ABC before the immunoblot).
T2 construct: Endogenous proteoglycan of cell lysates; also called syndecan-1 receptor
T2 sequence (looked up): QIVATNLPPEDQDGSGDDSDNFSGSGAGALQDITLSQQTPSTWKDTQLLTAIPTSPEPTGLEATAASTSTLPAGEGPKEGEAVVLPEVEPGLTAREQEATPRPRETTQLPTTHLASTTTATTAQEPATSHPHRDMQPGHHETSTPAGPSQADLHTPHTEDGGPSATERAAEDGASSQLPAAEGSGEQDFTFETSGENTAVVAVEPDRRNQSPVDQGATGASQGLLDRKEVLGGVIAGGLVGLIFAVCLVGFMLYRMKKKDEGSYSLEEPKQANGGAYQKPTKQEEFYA
In words: pull-down from normal human keratinocyte lysate, immunoblot with H174. As to the method: To identify the nature of the cell receptor binding to the peptide […] (SEQ ID NO: 1), affinity chromatography or 'pull-down' assays were performed by incubating beads coated with peptides with cell lysates. Lysates of primary keratinocytes or fibroblasts were made using a lysis buffer of 1% triton X-100 in PBS, pH 7.5, containing N-ethylmaleimide and phenylmethylsulphonylfluoride 50 mM. The wild type peptide […] (SEQ ID NO: 1) and the mutated peptides were bound to biotin at their amino-terminal ends and 100 µg of each biotinylated peptide were attached to agarose-neutravidin beads (Perbio Science, Bezons, France) by incubation for 16 hours at +4° C. The beads were then incubated with 2 mg of cell lysate for 2 hours at +4° C. After washing 3 times with the lysis buffer, the beads were transferred into a digestion buffer (20 mM sodium acetate, 5 mM CaCl2, pH 7.0) containing 8 mU/ml heparitinase I and 50 mU/ml of chondroitinase ABC (Seikagaku America, Coger, Paris, France) for 2 hours at 25° C. This treatment strips the protein part of syndecan-1 of glycosaminoglycans, making it easier to analyse by immunoblotting. The samples were then analysed by SDS PAGE electrophoresis in an 8% acrylamide gel under non-reducing conditions and by immunoblotting with polyclonal anti-syndecan antibody H174 (Santa Cruz Biotechnology, Le Perray en Yvelines, France).

In the case of TSVTPKQSL, the “Binding of syndecan-1 to the biotinylated peptide on beads” value (shortened to “Binding … on beads”) in data set [1] is “did not retain the syndecan-1”. For KKLRIKSKEK [KKLRIKSKEK], the “Cytotoxic effect on epidermal keratinocytes (percentage of viable cells vs controls)” value in data set [2] is “neither peptide KKLRIKSKEK (SEQ ID NO: 1) nor protein LG4/5 has any long-term cytotoxic effect”.

With “KKLRLRSKER [M2, from the murine laminin alpha3 chain]”, in data set [1], the “Binding … on beads” value is given as “proved capable of binding syndecan-1”. Turning to PSGKPKSLP, the “Binding … on beads” value in data set [1] was “did not retain the syndecan-1”.

Consider Biotin-KKLRIKAKEK [mutated peptide A7 (alanine in place of amino acid 7 of …)], for which the binding result in data set [3] was “no binding”.

Turning to PSGKPKSLP (also: biotinylated) [biotinylated peptide PSGKPKSLP (SEQ ID NO: 19)], the binding result in data set [3] was “no binding”. Still for that read-out and setting: to Biotin-KKLAIKSKEK [mutated peptide A4 (alanine in place of amino acid 4 of …)] belongs “no binding”; to TSVTPKQSL (also: biotinylated) [biotinylated peptide TSVTPKQSL (SEQ ID NO: 20)], “no binding”. On the same count and under the same terms, to Biotin-AKLRIKSKEK [mutated peptide A1 (alanine in place of amino acid 1 of …)] belongs “no binding”.
